Substitutions are numbered along the chain they refer to. Names may count otherwise.
T1: human OX40, cell surface-expressed (human, UniProt P43489 29-277)
T1 construct: also called CD134; TNFRSF4
T1 sequence: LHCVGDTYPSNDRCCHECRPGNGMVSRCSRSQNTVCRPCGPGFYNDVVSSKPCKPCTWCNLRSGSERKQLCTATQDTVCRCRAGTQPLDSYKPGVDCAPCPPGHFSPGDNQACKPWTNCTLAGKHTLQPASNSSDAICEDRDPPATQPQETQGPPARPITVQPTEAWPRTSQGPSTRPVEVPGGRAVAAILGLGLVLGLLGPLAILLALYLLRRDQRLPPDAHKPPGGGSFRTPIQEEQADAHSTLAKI

T2: human OX40 with mouse CRD1 (human with mouse CRD1, UniProt P43489 29-277)
T2 construct: on transfected ExpiCHO-S cells; also called Shuffle 1; OX40-CRD1mm
T2 chain: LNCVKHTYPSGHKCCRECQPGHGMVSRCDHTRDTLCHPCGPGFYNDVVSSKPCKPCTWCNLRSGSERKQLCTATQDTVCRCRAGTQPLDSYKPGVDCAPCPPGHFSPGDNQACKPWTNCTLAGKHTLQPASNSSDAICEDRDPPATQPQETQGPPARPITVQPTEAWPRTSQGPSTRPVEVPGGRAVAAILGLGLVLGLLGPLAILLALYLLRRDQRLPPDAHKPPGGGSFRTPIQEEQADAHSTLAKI

T3: human OX40 with mouse CRD3 (human with mouse CRD3, UniProt P43489 29-277)
T3 construct: on transfected ExpiCHO-S cells; also called Shuffle 3; OX40-CRD3mm
T3 chain: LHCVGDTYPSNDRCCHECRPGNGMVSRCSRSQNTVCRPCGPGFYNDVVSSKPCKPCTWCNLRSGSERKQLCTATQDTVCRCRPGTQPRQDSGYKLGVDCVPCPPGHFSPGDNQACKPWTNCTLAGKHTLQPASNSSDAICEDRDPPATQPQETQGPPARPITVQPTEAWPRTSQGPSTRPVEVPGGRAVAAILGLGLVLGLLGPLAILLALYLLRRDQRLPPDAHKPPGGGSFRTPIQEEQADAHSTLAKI

T4: human OX40 with mouse CRD4 (human with mouse CRD4, UniProt P43489 29-277)
T4 construct: on transfected ExpiCHO-S cells; also called Shuffle 4; OX40-CRD4mm
T4 chain: T1 sequence with D109N, A122S, H125Q, L127R, Q128H, N132D, S134L, I137V

T5: cynomolgus monkey OX40, cell surface-expressed (cynomolgus monkey, UniProt P43489 29-277 (human entry))
T5 construct: full-length, on transfected HEK293F cells
T5 chain: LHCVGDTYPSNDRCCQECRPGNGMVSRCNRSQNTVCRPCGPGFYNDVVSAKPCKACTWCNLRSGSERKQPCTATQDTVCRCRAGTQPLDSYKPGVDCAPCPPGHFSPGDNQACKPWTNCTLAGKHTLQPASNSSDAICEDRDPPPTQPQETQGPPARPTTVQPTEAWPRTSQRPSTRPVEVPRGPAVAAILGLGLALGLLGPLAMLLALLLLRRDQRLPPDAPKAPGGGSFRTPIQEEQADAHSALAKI

T6: human OX40 with mouse CRD2 (human with mouse CRD2, UniProt P43489 29-277)
T6 construct: on transfected ExpiCHO-S cells; also called Shuffle 2; OX40-CRD2mm
T6 chain: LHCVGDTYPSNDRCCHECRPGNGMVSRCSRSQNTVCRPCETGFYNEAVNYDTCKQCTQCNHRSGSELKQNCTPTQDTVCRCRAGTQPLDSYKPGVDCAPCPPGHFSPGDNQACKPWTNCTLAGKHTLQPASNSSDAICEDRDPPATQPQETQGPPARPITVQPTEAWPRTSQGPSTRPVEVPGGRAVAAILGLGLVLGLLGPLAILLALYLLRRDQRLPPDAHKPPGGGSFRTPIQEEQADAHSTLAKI

B1: IgG1-CD134-007-RR (antibody)
heavy: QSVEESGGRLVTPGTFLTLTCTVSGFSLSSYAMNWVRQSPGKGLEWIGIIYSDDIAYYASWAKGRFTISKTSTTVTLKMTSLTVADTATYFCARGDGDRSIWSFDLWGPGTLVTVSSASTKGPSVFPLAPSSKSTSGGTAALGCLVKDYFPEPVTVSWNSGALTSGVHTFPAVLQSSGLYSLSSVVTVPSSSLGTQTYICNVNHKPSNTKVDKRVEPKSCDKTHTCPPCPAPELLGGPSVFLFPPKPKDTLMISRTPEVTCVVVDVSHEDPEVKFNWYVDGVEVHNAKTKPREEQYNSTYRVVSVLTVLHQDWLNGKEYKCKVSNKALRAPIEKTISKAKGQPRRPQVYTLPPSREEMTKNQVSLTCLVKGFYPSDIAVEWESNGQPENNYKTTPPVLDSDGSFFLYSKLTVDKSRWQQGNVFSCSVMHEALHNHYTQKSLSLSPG
light: AQVLTQTPSPVSAAVGGTVTISCQSSESVWNNNWLAWYQQKPGQPPNLLIYEASTLASGVSSRFKGSGSGTQFTLTVSEVQSDDAATYYCQGGYYDSSPIWTFGGGTEVVVKRTVAAPSVFIFPPSDEQLKSGTASVVCLLNNFYPREAKVQWKVDNALQSGNSQESVTEQDSKDSTYSLSSTLTLSKADYEKHKVYACEVTHQGLSSPVTKSFNRGEC
notes: chimeric 007 with RR constant region; also called IgG1-CD134-007-P329R-E345R
B2: IgG1-CD134-012-RR-K409R (antibody)
heavy: QSLEESGGRLVTPGTPLTLICTVSGIDLSSGAMGWVRQAPGKGLEYIGYIYTGSGTTSYASWVNGRFTISMTSTTVDLKITSPTTEDTATYFCARDAASSYWGHFTLWGQGTLVTVSSASTKGPSVFPLAPSSKSTSGGTAALGCLVKDYFPEPVTVSWNSGALTSGVHTFPAVLQSSGLYSLSSVVTVPSSSLGTQTYICNVNHKPSNTKVDKRVEPKSCDKTHTCPPCPAPELLGGPSVFLFPPKPKDTLMISRTPEVTCVVVDVSHEDPEVKFNWYVDGVEVHNAKTKPREEQYNSTYRVVSVLTVLHQDWLNGKEYKCKVSNKALRAPIEKTISKAKGQPRRPQVYTLPPSREEMTKNQVSLTCLVKGFYPSDIAVEWESNGQPENNYKTTPPVLDSDGSFFLYSRLTVDKSRWQQGNVFSCSVMHEALHNHYTQKSLSLSPG
light: DIVMTQTPASVEAAVGGTVTIKCQASENIYSSLAWYQQKPGQPPKLLIYRTSTLASGVPSRFKGSGSGTQFTLTISDLESDDAATYYCQSYYHNSGGGYDYGFGGGTEVVAKRTVAAPSVFIFPPSDEQLKSGTASVVCLLNNFYPREAKVQWKVDNALQSGNSQESVTEQDSKDSTYSLSSTLTLSKADYEKHKVYACEVTHQGLSSPVTKSFNRGEC
notes: chimeric 012; also called IgG1-CD134-012-P329R-E345R-K409R

Key:
[1] = biological target: T1, human OX40, cell surface-expressed; assay: flow cytometry, ExpiCHO-S cells with human OX40
Method: (§1) The four shuffle constructs, as well as wild-type human and mouse OX40 were transiently expressed on ExpiCHO-S cells using the ExpiFectamine™ CHO Transfection Kit (ThermoFisher, cat. no. A29131), according to the manufacturer's protocol. […] Next, cells were washed twice in FACS buffer 1, were resuspended in a 30 μL solution of viability marker ToPro-3 (Invitrogen, cat. no. T3605, diluted 1:10,000) in FACS buffer 1 supplemented with 2 mM EDTA, and were analyzed on an iQue Screener Plus (Intellicyt Corporation, USA). Data were analyzed using FlowJo software and visualized using GraphPad Prism.

[2] = biological target: T2, human OX40 with mouse CRD1; assay: flow cytometry, ExpiCHO-S cells with human OX40 carrying mouse CRD1
Method: (§2) Data shown are the geometric mean of the fluorescence intensity (gMFI) from one representative experiment out of two experiments performed.
as §1

[3] = biological target: T3, human OX40 with mouse CRD3; assay: flow cytometry, ExpiCHO-S cells with human OX40 carrying mouse CRD3
Method: as §1

[4] = biological target: T4, human OX40 with mouse CRD4; assay: flow cytometry, ExpiCHO-S cells with human OX40 carrying mouse CRD4
Method: as §2, §1

[5] = biological target: T5, cynomolgus monkey OX40, cell …; assay: flow cytometry, HEK293F cells with cynomolgus monkey OX40
Method: Transfected cells were seeded in 96-well plates (30,000 cells/well; ThermoFisher, cat. no. 163320) for sequential incubations, with washing steps in between using fluorescence-activated cell sorting (FACS) buffer 1 (phosphate buffered saline [PBS; Lonza, cat. no. BE17-517Q] supplemented with 0.1% bovine serum albumin [BSA; Roche, cat. no. 10735086001] and 0.02% sodium azide [NaN₃; Bio-World, cat. no. 41920044-3]) supplemented with 2 mM ethylenediaminetetraacetic acid (EDTA; Sigma-Aldrich, cat. no. 03690). […] Cells were then washed using EDTA-supplemented FACS buffer 1, resuspended in a 30 μL solution of viability marker ToPro-3 (Invitrogen, cat. no. T3605, diluted 1:10,000) in EDTA-supplemented FACS buffer 1, and subsequently analyzed on an iQue® 3 flow cytometer (Satorius). Data were analyzed using FlowJo software and were visualized using GraphPad Prism.

[6] = biological target: T6, human OX40 with mouse CRD2; assay: flow cytometry, ExpiCHO-S cells with human OX40 carrying mouse CRD2
Method: as §1

| Binder | EC50 (read off the curve) [1] [µg/mL] | EC50 (read off the curve) [2] [µg/mL] | EC50 (read off the curve) [3] [µg/mL] | EC50 (read off the curve) [4] [µg/mL] | EC50 (read off the curve) [5] [µg/mL] | EC50 (read off the curve) [6] [µg/mL] |
| --- | --- | --- | --- | --- | --- | --- |
| B1 | ~0.005 | ~0.005 | ~0.02 | ~0.009 | – | – |
| B2 | ~0.06 | – | ~0.1 | ~0.1 | ~0.05 | ~0.1 |

Reference: patent US20240376221A1 (Genmab, published 2024)
